Publication PMC6456722, “Internal cleavage and synergy with twisted gastrulation enhance BMP inhibition by BMPER” (Matrix Biology, 2019)
Each block holds one binder with its values, some of them ahead of it.

B3: full-length BMP-binding endothelial cell precursor-derived regulator (FL-BMPER) (natural protein)
chain: not shown
modifications: N-glycosylated (five predicted N-glycosylation sites)
notes: BMPER, human, full length, based on NCBI NM_133468.4; five vWFC domains, one vWFD domain, one TIL domain; His tag is thrombin cleavable; The protein is internally cleaved at the G368DPH371 site; the two fragments stay joined by the disulphide C364-C497; also called full length BMPER; Crossveinless-2 (CV2) in other species

What was measured:
[1] = molecular target: T1, N-BMPER (N-terminal five vWFC domains of human BMPER) (human, UniProt Q8N8U9 40-358, N-glycosylated (four predicted sites in the vWFC domains)); test: SPR; chordin vWFC2-3 immobilised, N-BMPER in solution phase; Langmuir 1:1 model; conditions: both partners purified
T1 construct: BMPER, human, the N-terminal five vWFC domains (vWFC1-5), based on NCBI NM_133468.4; His tag is thrombin cleavable; also called C-terminally truncated N-BMPER

[2] = molecular target: B3; test: SPR; ProteOn XPR36; Tsg immobilised on a GLC chip by amine coupling; FL-BMPER (0-150 nM) or N-BMPER (0-50 nM) as analytes; 10 mM phosphate pH 7.4, 137 mM NaCl, 2.7 mM KCl, 0.005% Tween-20, 25 °C; KD of FL-BMPER by equilibrium analysis, of N-BMPER by Langmuir 1:1 model; conditions: both partners purified
[3] = molecular target: T1, N-BMPER (N-terminal five vWFC domains …); test: as above; conditions: both partners purified
[4] = molecular target: the molecule itself; test: AUC; sedimentation velocity, 230 nm, 45000 rpm, 20 °C

T1 sequence (Q8N8U9 40-358): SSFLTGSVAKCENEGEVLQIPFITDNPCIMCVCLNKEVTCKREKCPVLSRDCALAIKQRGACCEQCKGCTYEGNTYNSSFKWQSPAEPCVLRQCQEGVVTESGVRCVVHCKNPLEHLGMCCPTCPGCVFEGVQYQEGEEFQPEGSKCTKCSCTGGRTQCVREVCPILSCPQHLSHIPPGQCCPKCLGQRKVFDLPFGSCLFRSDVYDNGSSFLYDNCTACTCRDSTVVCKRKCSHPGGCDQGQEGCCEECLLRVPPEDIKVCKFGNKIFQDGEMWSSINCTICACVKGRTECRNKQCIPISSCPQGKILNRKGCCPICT

- Kd [1]: 0.2 nM
- koff [1]: 8.22e-05 s⁻¹
- kon [1]: 404000 M⁻¹ s⁻¹
B1: chordin vWFC2-3 (domain or fragment, UniProt Q9H2X0 703-850, looked up)
chain: NTCFFEGQQRPHGARWAPNYDPLCSLCTCQRRTVICDPVVCPPPSCPHPVQAPDQCCPVCPEKQDVRDLPGLPRSRDPGEGCYFDGDRSWRAAGTRWHPVVPPFGLIKCAVCTCKGGTGEVHCEKVQCPRLACAQPVRVNPTDCCKQC
notes: chordin, domains vWFC2-3

- Kd [2]: 68.4 nM
- koff [2]: 0.000203 s⁻¹
- kon [2]: 2970 M⁻¹ s⁻¹
- Kd [3]: 0.55 nM
- koff [3]: 0.000228 s⁻¹
- kon [3]: 415000 M⁻¹ s⁻¹
B2: twisted gastrulation (Tsg) (natural protein, human, UniProt Q9GZX9 26-223, looked up)
chain: CNKALCASDVSKCLIQELCQCRPGEGNCSCCKECMLCLGALWDECCDCVGMCNPRNYSDTPPTSKSTVEELHEPIPSLFRALTEGDTQLNWNIVSFPVAEELSHHENLVSFLETVNQPHHQNVSVPSNNVHAPYSSDKEHMCTVVYFDDCMSIHQCKISCESMGASKYRWFHNACCECIGPECIDYGSKTVKCMNCMF
notes: twisted gastrulation (Tsg)

Binder: B3
- binding result [4]: binds
